Measurements as given in PMC9212699.

Tests used:
[1] = molecular target: SARS-CoV-2 Omicron BA.3 RBD protein with His-tag, spike residues 319-541 (SARS-CoV-2); assay: SPR
[2] = molecular target: BA.2 RBD with the S408R mutation (SARS-CoV-2); assay: SPR

Human ACE2 protein, residues 19-615 (produced by HEK293F cells, used for SPR), sequence (Q9BYF1 19-615): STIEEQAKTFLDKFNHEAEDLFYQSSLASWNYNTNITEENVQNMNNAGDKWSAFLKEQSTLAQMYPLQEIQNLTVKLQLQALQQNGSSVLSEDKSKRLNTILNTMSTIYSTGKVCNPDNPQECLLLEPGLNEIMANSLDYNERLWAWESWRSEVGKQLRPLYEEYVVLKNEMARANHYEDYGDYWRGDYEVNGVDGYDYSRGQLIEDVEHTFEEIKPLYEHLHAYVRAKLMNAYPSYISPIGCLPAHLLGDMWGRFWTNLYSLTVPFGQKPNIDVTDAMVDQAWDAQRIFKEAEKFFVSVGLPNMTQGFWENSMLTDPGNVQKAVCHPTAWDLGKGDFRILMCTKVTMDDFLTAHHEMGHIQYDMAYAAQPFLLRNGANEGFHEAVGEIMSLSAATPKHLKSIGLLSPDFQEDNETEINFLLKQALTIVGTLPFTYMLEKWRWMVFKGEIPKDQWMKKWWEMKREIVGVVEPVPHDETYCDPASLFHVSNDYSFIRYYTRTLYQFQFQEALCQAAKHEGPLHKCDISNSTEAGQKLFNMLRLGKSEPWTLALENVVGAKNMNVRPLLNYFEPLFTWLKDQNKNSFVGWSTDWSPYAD

With “Human ACE2 protein, residues 19-615 (produced by HEK293F cells, used for SPR) (from UniProt Q9BYF1-1 19-615) (receptor)” the Kd [1] was 22.1 nM and the Kd [2] was 16.4 nM.
